In the assay the target is biotinylated His-Avi-TEAD (194-411) (UniProt P28347). The assay is described as follows: SSM screen, enrichment after two rounds of sorting.
As for GSPDEYKERAKECCKKGDIQCCLRYFEESGDPNVMLICLFCP (designed binder) [I05K variant of SEQ ID NO: 1], the enrichment score was -1.5.

For GSPDEYRERAKECCKKGDIQCCLRYFEESGDPNVMLICLFCP (designed binder) [I05R variant of SEQ ID NO: 1], the enrichment score was -3.27. In the case of GSPDEYIERAKRCCKKGDIQCCLRYFEESGDPNVMLICLFCP (designed binder) [E10R variant of SEQ ID NO: 1], the enrichment score was -2.84. Next, GSPDEYIERKKECCKKGDIQCCLRYFEESGDPNVMLICLFCP (designed binder) [A08K variant of SEQ ID NO: 1]: -4.73. Molecule GSPREYIERAKECCKKGDIQCCLRYFEESGDPNVMLICLFCP (designed binder) [D02R variant of SEQ ID NO: 1] gave an enrichment score of -7.12.

Turning to GSPDEYIEMAKECCKKGDIQCCLRYFEESGDPNVMLICLFCP (designed binder) [R07M variant of SEQ ID NO: 1], the enrichment score was -1.06. Next, GSMDEYIERAKECCKKGDIQCCLRYFEESGDPNVMLICLFCP (designed binder) [P01M variant of SEQ ID NO: 1]: -1.02; GSRDEYIERAKECCKKGDIQCCLRYFEESGDPNVMLICLFCP (designed binder) [P01R variant of SEQ ID NO: 1]: -2.1; GSPDEYMERAKECCKKGDIQCCLRYFEESGDPNVMLICLFCP (designed binder) [I05M variant of SEQ ID NO: 1]: -1.87. Under GSPDERIERAKECCKKGDIQCCLRYFEESGDPNVMLICLFCP (designed binder) [Y04R variant of SEQ ID NO: 1] stands -0.94; under GSPDEYIERRKECCKKGDIQCCLRYFEESGDPNVMLICLFCP (designed binder) [A08R variant of SEQ ID NO: 1], -5.84; under GSPDEMIERAKECCKKGDIQCCLRYFEESGDPNVMLICLFCP (designed binder) [Y04M variant of SEQ ID NO: 1], -0.68. Molecule GSPDMYIERAKECCKKGDIQCCLRYFEESGDPNVMLICLFCP (designed binder) [E03M variant of SEQ ID NO: 1] had an enrichment score of 2.57.

Molecule GSPDEYIKRAKECCKKGDIQCCLRYFEESGDPNVMLICLFCP (designed binder) [E06K variant of SEQ ID NO: 1] returned an enrichment score of -1.13.

Molecule GSPDEYIMRAKECCKKGDIQCCLRYFEESGDPNVMLICLFCP (designed binder) [E06M variant of SEQ ID NO: 1] registered an enrichment score of -2.04. Next, GSPDEYIRRAKECCKKGDIQCCLRYFEESGDPNVMLICLFCP (designed binder) [E06R variant of SEQ ID NO: 1]: -1.78; GSPDEYIERAKKCCKKGDIQCCLRYFEESGDPNVMLICLFCP (designed binder) [E10K variant of SEQ ID NO: 1]: -2.3. In turn, GSPDEYIEKAKECCKKGDIQCCLRYFEESGDPNVMLICLFCP (designed binder) [R07K variant of SEQ ID NO: 1] showed an enrichment score of 0.47. Next, GSPMEYIERAKECCKKGDIQCCLRYFEESGDPNVMLICLFCP (designed binder) [D02M variant of SEQ ID NO: 1]: -1.86; GSPDEYIERARECCKKGDIQCCLRYFEESGDPNVMLICLFCP (designed binder) [K09R variant of SEQ ID NO: 1]: -1.3.

GSPDRYIERAKECCKKGDIQCCLRYFEESGDPNVMLICLFCP (designed binder) [E03R variant of SEQ ID NO: 1] returned an enrichment score of -1.81.

(Values after patent US20230151068A1.)
